{
  "source": "paper PMC5072170",
  "tested_on": "Cc1cn([C@H]2C[C@H](O)[C@@H](COP(=O)(O)OP(=O)(O)O[C@H]3O[C@H](C)[C@@H](O)[C@H](N)[C@H]3O)O2)c(=O)[nH]c1=O",
  "assay": "purified protein",
  "conditions": "5 mM N10-formyl-THF, 50 mM HEPPS pH 8.0, hyperbolic",
  "data": [
    {"substance": "QdtF (Providencia alcalifaciens)", "values": [
      {"measurement": "Km", "result": "0.45 ± 0.09", "unit": "mM"},
      {"measurement": "kcat", "result": "2.43 ± 0.31", "unit": "s⁻¹"},
      {"measurement": "kcat/Km", "result": 5400, "unit": "M⁻¹ s⁻¹"}
    ]}
  ]
}
